Drawing on US20160304608A1 (published 2016), this text covers Kd, kon and koff for three molecules.

Residue numbers refer to the chain shown, from its start.

Assay [1] concerns the target T1, human FcRn (hFcRn) (human, UniProt P55899 24-297; P16213 21-119, limits assumed).
T1 construct: hFcRn was the soluble analyte in SPR; also called FcRn analyte
The experiment in a line: SPR (Biacore 3000), antibody amine-coupled on CM5, hFcRn analyte, pH 6.0, 25 C, 1:1 model. As for the experimental part: SPR measurements were performed using a Biacore 3000. […] The sensor chip surface was regenerated with a 30 sec pulse of 10 mM glycine pH 1.5 at a flow rate of […] followed by a 15 second pulse of buffer. Measurements were performed at 25° C. using HBS-P as the running buffer. The reference flow cell was activated and blocked in a mock amine coupling reaction. The data was fit to a 1:1 binding model using Biaevalution v.4.1 software.
On the technique in general: In SPR one partner is held on a chip, and binding of the other changes the refractive index at the surface.

Assay [2] deals with T1, human FcRn (hFcRn). The experiment in a line: SPR (Biacore 3000), antibody amine-coupled on CM5, hFcRn analyte, pH 7.5, 25 C, 1:1 model.

T1 sequence (P55899 24-297 limits assumed, chain 1 of 2): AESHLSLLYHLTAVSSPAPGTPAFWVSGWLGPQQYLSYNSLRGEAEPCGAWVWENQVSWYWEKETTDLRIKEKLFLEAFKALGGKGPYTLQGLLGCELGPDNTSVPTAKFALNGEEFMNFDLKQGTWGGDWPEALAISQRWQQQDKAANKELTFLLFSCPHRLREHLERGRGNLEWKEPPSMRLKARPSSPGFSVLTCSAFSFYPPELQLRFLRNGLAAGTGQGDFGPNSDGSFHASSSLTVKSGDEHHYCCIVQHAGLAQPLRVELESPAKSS
T1 sequence (P16213 21-119 limits assumed, chain 2 of 2): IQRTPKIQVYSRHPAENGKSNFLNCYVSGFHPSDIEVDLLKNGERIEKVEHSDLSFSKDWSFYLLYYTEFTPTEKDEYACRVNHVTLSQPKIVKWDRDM

B1: 532A-X54-B03 (cys to ala mutant of DX-2504) (antibody, V domains shown)
VH: EVQLLESGGGLVQPGGSLRLSCAASGFTFSEYAMGWVRQAPGKGLEWVSSIGSSGGQTKYADSVKGRFTISRDNSKNTLYLQMNSLRAEDTAVYYCARLAIGDSYWGQGTMVTVSS
VL: QSALTQPASVSGSPGQSITISCTGTGSDVGSYNLVSWYQQHPGKAPKLMIYGDSQRPSGVSNRFSGSKSGNTASLTISGLQAEDEADYYCASYAGSGIYVFGTGTKVTVL
notes: also called 532-X54-B03; 532A-X53-B03
A word on the Kd: it is the free concentration of one partner at which half of the binding sites on the other are occupied at equilibrium, for simple one-to-one binding. A lower Kd goes with tighter binding. As a reminder, the kon is the rate constant with which the complex forms. A low value points to slower complex formation. With B1, the Kd in assay [1] is 1.8 nM. For the same molecule, in assay [2], the affinity, expressed as Kd, was 2 nM and the kon worked out at 110000 M⁻¹ s⁻¹.

B2: 532A-X53-C02 (cys to ser mutant of DX-2504) (antibody, V domains shown)
VH: B1 VH
VL: B1 VL with A91S
notes: also called C54-C02
As usually defined, the koff is the rate constant with which the complex falls apart. A high value points to fast dissociation. In assay [1], B2 yielded a Kd of 1.4 nM, a koff of 0.00043 s⁻¹ and a kon of 310000 M⁻¹ s⁻¹. In assay [2], this molecule gave an equilibrium dissociation constant (Kd) of 1.7 nM, a koff of 0.00032 s⁻¹ and an on-rate (kon) of 190000 M⁻¹ s⁻¹.

B3: DX-2504 anti-FcRn antibody (antibody, human IgG1, lambda)
heavy: not shown
light: QSALTQPASVSGSPGQSITISCTGTGSDVGSYNLVSWYQQHPGKAPKLMIYGDSQRPSGVSNRFSGSKSGNTASLTISGLQAEDEADYYCCSYAGSGIYVFGTGTKVTVLGQPKANPTVTLFPPSSEELQANKATLVCLISDFYPGAVTVAWKADGSPVKAGVETTKPSKQSNNKYAASSYLSLTPEQWKSHRSYSCQVTHEGSTVEKTVAPTECS
notes: It was immobilized by amine coupling in the SPR assay
B3: in assay [1], the affinity, expressed as Kd, was 1.5 nM; the koff came out at 0.00035 s⁻¹; the kon is 240000 M⁻¹ s⁻¹. In assay [2], this molecule had a Kd of 1.9 nM, an off-rate (koff) of 0.00028 s⁻¹ and a kon of 150000 M⁻¹ s⁻¹.
